Test results from patent publication US8304236B2, “Modified biotin-binding protein” (Japan Tobacco Inc., priority 2008, dated 2012).

B1: TM2 R104EK141E: TM2 mutant, arginine 104 and lysine 141 each replaced with glutamic acid; SEQ ID NO: 16 (protein)
chain: MSDVQSSLTGTWYNELNSKMELTANKDGTLTGKYLSKVGDVYVPYPLSGRYNLQPPAGQGVALGWAVSWENSKIHSATTWSGQFFSESSPVILTQWLLSSSTAEGDVWESTLVGNDSFTKTAPTEQQIAHAQLHCRAPRLE
modifications: Synthetic TM2 R104EK141E
B2: TM2 D40NR104E: TM2 mutant having mutation of D40N and R104E; SEQ ID NO: 22 (protein)
chain: MSDVQSSLTGTWYNELNSKMELTANKDGTLTGKYLSKVGNVYVPYPLSGRYNLQPPAGQGVALGWAVSWENSKIHSATTWSGQFFSESSPVILTQWLLSSSTAEGDVWESTLVGNDSFTKTAPTEQQIAHAQLHCRAPRLK
modifications: Synthetic TM2 D40NR104E

Assays:
[1] = Heat stability of protein structure (soluble protein after heating, SDS-PAGE); type: physicochemical; settings: heated for 20 minutes
Procedure: 3-8) Heat Stability of HALU TM2 Protein Structure Each of 0.2 μg/μL TM2 mutant solutions (10 μL (2 μg)) was heated at room temperature, 50, 60, 70, 80, 90, or 99° C. for 20 minutes. Then, the solution was centrifuged at 15000 rpm for 10 minutes, and the soluble protein in the supernatant was suspended in the same volume of 2×SDS sample buffer (250 mM Tris-HCl, pH 6.8, 20% 2-mercaptoethanol, 20% SDS, 20% glycerol). The suspension was heated at 95° C. for 10 minutes, followed by SDS-PAGE. The protein bands were detected by CBB staining A standard curve was prepared using a quantitative marker (LMW ELECTROPHORESIS CALIBRATION KIT; Pharmacia Biotech) with Las-3000 (FUJIFILM) to quantify the protein bands.

[2] = Isoelectric focusing electrophoresis (pI observed); type: physicochemical; settings: pH 3 to 10 gel
Procedure: The isoelectric point of each low-pI TM2 was measured by isoelectric focusing electrophoresis using an XCell SureLock Mini-Cell (Invitrogen). In accordance with the instruction, each low-pI TM2 (500 ng) and an IEF sample buffer (pH 3 to 10 (2×), Invitrogen) were mixed and were added to a polyacrylamide gel (pH 3 to 10, IEF Gel, Invitrogen) at a pH ranging from 3 to 10, followed by electrophoresis at a variable voltage of 100 V for 1 hour, 200 V for 1 hour, and 500 V for 45 minutes in this order.
After the electrophoresis, the gel was shaken in a blotting buffer (0.7% acetic acid) for 10 minutes and then was transferred onto a PVDF membrane at 10 V for 1 hour using an XCell ll Blot Module (Invitrogen). The PVDF membrane was subjected to reaction with anti-TM2 rabbit antibody (PCT/W2006/326260) serving as a primary antibody and with alkaline phosphate-labeled anti-rabbit IgG antibody (BIO-RAD) serving as a secondary antibody, followed by detection of bands with Alkaline Phosphatase Substrate Kit II
The isoelectric point of the high-affinity TM2 was measured by isoelectric focusing electrophoresis using an XCell SureLock Mini-Cell (Invitrogen). […] The electric point of TM2 D40N having replacement of the […] amino acid was higher than that of the wild type TM2 also in the isoelectric focusing electrophoresis.
The isoelectric point of HALU TM2 was measured by isoelectric focusing electrophoresis using an XCell SureLock Mini-Cell (Invitrogen). In accordance with the instruction, bands of each HALU TM2 (4 μg) were detected by CBB staining. […] The observed isoelectric point of TM2 D40N was 9.7, and was reduced to 8.9 after introduction of mutation of R104E and was reduced to 7.3 to 7.5 after further introduction of mutation of K141E.

[3] = system: human serum protein; test: Non-specific adsorption of low-pI TM2 to human serum protein-immobilized magnetic beads; type: binding
Procedure: In this embodiment, non-specific binding to human serum was investigated as non-specific adsorption of low-pI TM2 to serum protein-immobilized magnetic beads. Specifically, in order to investigate the non-specific binding of low-pI TM2, the amount of low-pI TM2 adsorbed to magnetic beads to which human serum protein was covalently bonded was measured. TM2 K26A, TM2 K73Q, TM2 R104E, TM2 K141E, and TM2 R104EK141E, which were highly expressed in Escherichia coli, were used as the low-pI TM2 to be investigated.
Human serum protein and magnetic beads were bound to each other as follows. Magnetic beads having surfaces coated with carboxyl groups (Dynabeads M-270 Carboxylic Acid, Dynal, 210 μL) were washed with 0.01 N sodium hydroxide (210 μL) for 10 minutes and then with ultrapure water (210 μL) for 10 minutes three times. To the washed magnetic beads, 1-ethyl-3-(3-dimethylaminopropyl)carbodiimide hydrochloride (EDC, PIERCE) dissolved in cooled ultrapure water was added into a final concentration of 0.2 M, and the mixture was shaken at room temperature for 30 minutes. Then, the magnetic beads were washed with cooled ultrapure water (210 μL) and then with 50 mM MES buffer (pH 5.0, 210 μL).
To the magnetic beads, 1 mg/mL human serum protein (CHEMICON, 210 μL) dialyzed with 50 mM MES buffer (pH 5.0) was added. The mixture was shaken at room temperature for 30 minutes to covalently bind the human serum protein to the magnetic beads. The magnetic beads were collected with a magnet to remove the supernatant. The unreacted active groups on the beads were eliminated with 50 mM tris buffer (pH 7.0, 210 μL), and then the magnetic beads were blocked with a PBS buffer (420 μL) containing 0.5% BSA and 0.1% Tween 20. The magnetic beads were suspended in a PBS buffer (210 μL) to obtain human serum protein-immobilized magnetic beads.
The magnetic beads (7 μL) and 0.56 μg/mL of each low-pI TM2 (100 μL) were mixed for reaction at room temperature for 1 hour. The magnetic beads were collected with a magnetic, and the supernatant was removed. After washing with 20 mM potassium phosphate buffer (500 μL) containing 500 mM sodium chloride, the magnetic beads were mixed with 20 μL of 2×SDS sample buffer (250 mM Tris-HCl, pH 6.8, 20% 2-mercaptoethanol, 20% SDS, 20% glycerol), followed by heating at 95° C. for 20 minutes to dissociate the low-pI TM2 from the magnetic beads.
This sample was subjected to SDS-PAGE and then western blotting analysis to determine the amount of the low-pI TM2. Anti-tamavidin 2 rabbit antibody and alkaline phosphatase-labeled anti-rabbit IgG goat antibody were used as the primary antibody and the secondary antibody, respectively. The bands were detected with Alkaline Phosphatase Substrate Kit II <VECTOR Black> (VECTRO) and were quantified with Las-3000 (FUJIFILM).

[4] = system: Salmon sperm DNA; test: Non-specific binding to DNA (membrane-adsorbed DNA, biotinylated HRP, ECL); settings: salmon sperm DNA 10 μg to 1 μg on membrane, 25 μg/mL protein
Procedure: Salmon sperm DNA diluted stepwise from 10 μg to 1 μg with 2×SSC buffer was denatured with an alkali and was adsorbed to Hybond N+membrane (Amersham Biosciences) using Bio-Dot SF (BIO-RAD). After blocking the membrane with 5×Denhardt's solution (0.1% BSA, 0.1% ficoll, 0.1% polyvinylpyrrolidone), the membrane was immersed in 25 μg/mL of low-pI TM2 or the wild-type TM2 at room temperature for 90 minutes. Then, the membrane was washed with a TUBS buffer (TBS buffer containing 0.05% Tween 20) at room temperature for 5 minutes three times. The membrane was blocked with a TBS buffer containing 3% skimmed milk and 0.1% Tween 20 for 1 hour. The membrane was subjected to a reaction with biotinylated horseradise peroxidase (Vector) diluted 5000 times with a TBS buffer containing 3% skimmed milk and 0.1% Tween 20 at room temperature for 1 hour. The membrane was washed with a TBS buffer containing 0.1% Tween 20 again and was then shaken in a solution that is a mixture of reagent 1 and reagent 2 of ECL (Amasham) in the same volumes, followed by detection of the luminol reaction with Las-3000 (FUJIFILM).
The non-specific binding of HALU TM2 to DNA was analyzed by the process in paragraph 1-11) of Example 1.

[5] = Biotin-binding test (Biacore 3000, biotin-LC-BSA immobilized); settings: Biotin-BSA (22.4 Å)
Procedure: High-purity BSA (Sigma, 2 mg) and NHS-LC-biotin (Pierce, 1 mg) were dissolved in 50 mM sodium borate (pH 8.0, 1 mL) and were incubated at 4° C. for 2 hours. The solution was put into a dialysis tube (MWCO 6-8,000) and was dialyzed with 50 mM sodium carbonate (pH 6.7) at 4° C. overnight. The resulting biotin-LC-BSA conjugate (MW: 67 kDa, 30 μM) was used as a ligand for a Biacore (registered trademark) biosensor.
Biotin-LC-BSA and BSA serving as a negative control were immobilized on CM5 sensor chips by amine coupling method. The amount for immobilization was adjusted to about 200 RU. The chips to which BSA was immobilized were disposed in flow cells 1 and 3, while the chips to which biotin-LC-BSA was immobilized were disposed in flow cells 2 and 4.
Accordingly, seven step measurement (3.125, 6.25, […], 25, 50, 100, and 200 nM) was conducted from the lowest concentration, without recycling steps. The data of BSA as reference was deducted from the data of BSA-LC-biotin. The measurement was performed at 25° C. The resulting sensorgrams were subjected to reaction kinetics analysis using analysis software BIAevaluation ver. 4.1 with a 1:1 binding model to calculate the binding rate constant (ka) and the dissociation rate constant (kd). The dissociation constant (KD) was determined from kd/ka. In the case where no recycling step is employed, the Rmax (maximum amount of binding analyte) decreases at each measurement. Accordingly, in the analysis, the Rmax was calculated by conducting local fitting for each concentration, and only the data of analyte concentrations that were approximated to the 1:1 binding model was employed.
TM2 and HALU TM2 used as analytes were prepared by purification with 2-iminobiotin agarose in accordance with a common method and dialysis with 20MM KPi (pH 7) overnight. The analytes were each adjusted to about 50 μg/mL in 10 mM acetate buffer (pH 5, Biacore).
The immobilization of the ligand and measurement and analysis of specific interaction with the analytes were conducted as in paragraph 2-7-2).

[6] = system: human serum protein; test: Non-specific adsorption of serum protein to HALU TM2-immobilized magnetic beads; type: binding; settings: human serum diluted 800 times, anti-human IgG detection
Procedure: In this Example, non-specific adsorption of serum protein to HALU TM2-immobilized magnetic beads was investigated.
TM2 D40NR104E and TM2 D40NR104EK141E were bonded covalently to magnetic beads (Dynabeads M-270 Carboxylic Acid, Dynal) by the process described in paragraph 1-9) of Example 1, and the amount of human serum protein adsorbed to the beads was measured. The amount of each HALU TM2 immobilized to the magnetic beads was adjusted to 10 μg/100 μL beads. Human serum (CHEMICON) was diluted 800 times with a PBS buffer, and the HALU TM2-immobilized magnetic beads (50 μL) to which a certain amount of protein was immobilized were added to the diluted human serum, followed by mixing by turning the tube containing the beads upside down at room temperature for 15 minutes. The magnetic beads were washed with a PBS buffer containing 0.1% Tween 20 (PBST, 500 μL) four times and were then subjected to antigen-antibody reaction at room temperature for 15 minutes with HRP-labeled anti-human IgG mouse antibody (100 μL) diluted 5000 times with PBST containing 0.5% BSA. Subsequently, the beads were washed with PBST (500 μL) five times, followed by color development with 1-Step Ultra TMB-ELISA (100 μL). After termination of the color development with 2M sulfuric acid (100 μL), the magnetic beads were collected with a magnet. The absorbance at 450 nm of the supernatant was measured with an Infinite 200 microplate reader.

Molecule | Thermal stability (temp. at which 50% of protein was lost) [1] | pI observed [2] | decrease of adsorption to human serum protein compared to the wild type TM2 ([3]; FIG. 1) | non-specific binding to human serum protein compared to TM2 ([3]; FIG. 1) | Non-specific binding of serum protein (%) ([3]; wild type TM2 = 100) | Non-specific binding of DNA [4] | ka [5] | kd ([5]; values in parentheses) | Non-specific binding to serum protein (A450) [6] | Non-specific binding to serum protein (A450) ([6]; listed as D40NR104E)
streptavidin [reference compound] | 70 °C | – | – | – | – | – | – | – | – | –
B1 | – | 6.2 | 70% | significantly low | 25% | lower than the detection limit | – | – | – | –
B2 | 78 °C | 8.9 | – | – | – | – | 1.4 × 10^6 | (2.9 × 10^−9) | low | 0.56
